test: soluble fraction after stress (log2 fold change); higher = more stays soluble; pooled small domains, quantitative proteomics; conditions: stress: pH 4
How it was run: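 How much of each domain stays soluble after acid stress, expressed as a fold change, is used to gauge aggregation propensity. Pooled custom libraries of small domains underwent pH 4 stress before high-throughput quantitative proteomics. A higher log2 value means more of the domain stayed soluble.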

Sequence	soluble fraction (log2)
HMTTRLLTPRQRQVFDIAIREGFYDSPRRISLTELADLLGVAKSTLSVQLQRVESTIVHTFSEEIRRRS	-0.176
HMTTRQREALLDYLSRHPDQPLTVREIAAGVEPDGVSLSAVYRNLAELEAAGLIRRESRPGSREAVVQYV	-0.192
HMTTTTTYITNTDAVNIRQQATTSSTSLGKLAKNTILSVKKKSGDWYQITYKKQTAYIHASLVDKKTAKVT	≥ 0.43
HMTTVDYDALRAAILQQVVSEDTTPALTTENTEIKYKFKFGLDTWVDLDGGKIAPAVSAKSYEIQISFKG	0.12
HMTTYVNGSWSGWNGSTVVKLTDGSVWRQAEYHYEYHYAYRPQARLERDELFVEGMSRGVRV	-0.754
HMTVADMQQKANVKRRNSNSHEAILDATVKLLGSSGYIDFSIEKVASQAGVGKQTIYRWWPSRADLVLEVW	0.223
HMTVAEVEDRMEASRVRQALDAVGEPHRTTIALAYFTGLTHTEIAQRMGVPLGTVKSRIRDGMAKMRTHLG	-0.172
HMTVDHDERRSMILEAFMRLAAREGLHAVSLRGVAAEAGISLRLVQYYFETKARLMQSGLTALET	-0.501
HMTVKKLIINEDNSGRRIDNYLLSIFNSVPRSKIYNIIRKGEVRVNSSRIKPSYRLEEGDQVRIPPNLDYT	-0.0871
HMTVKRNILQELLKTAFKHPEDFRPSKTFYGETGIGQKRFWALYYGHKAVTQKEYYAVADYLG	0.202
HMTVLDYNENVLSKVMNAAEINDSDKEAFIAFAKDYNSDDNLYLKKEELETAAGAWNARNVE	-0.552
HMTVLTDEIKVILISYIKENDFKKKHGNRKMMMTAQDMYDELVEKGYKISYPTVTQYVQKYRENETT	-0.0952
HMTVMTGSQRRKKILELMRDAKEPLSGGALGKETGVSRHVVVQDIALLRTQGYPIVATARGYIINE	≥ 0.43
HMTVRLSVSADGKFFWNESQVSEEELFPRLQAEAAKEPQPDLHIRGDKNVRYEFVAQAMAAAQRAGVRKI	-0.423
HMTVSADQTAADAVIKLINAIGTVSENSGSAISAARSGYDALTDTQKKLVTNYNKLTQAEQVFSSLPS	-0.315
HMTVSGNIAGDYKDYLPQKTDVINGMTVTYRMVDDAVYLASWKHAGQNHVFLFNDPVSVERAREMI	-0.965
HMTVSIDSLFDKFEDLQEQGLGDKTEEGQELRGLIRAFIEQEHLSVRITRSTSNQELLDMIEEAMQ	-0.551
HMTVSRRYTENEMETALKAYLATHNFISRRDMQQEFALTIYSARKWLNHFVDVGLIERIGLKNAPIYKL	0.22
HMTVTKYGKKILEIVSSSRSHMTAEEIFDALRQTYPTVVLATVYNNLNRLWQDDLIRKVSVEGMPDRYD	-0.0435
HMTVVPNIVNQPEAAGTNLLISSNLKPGNRAVQYSDTVKAGDIISQSPEPGAQATLGGKVDYVISQGPAPT	0.22
HMTWIAEIELRLMGNGAVTGAKIVKSTDLKDVDAAIYRAALEASPYPAPESGIGGRFTIKLKY	0.015
HMTYLIKFDENGRRSDTYVAEEKTQEQVTELLEKGFVLITEEDYQLLVGNVDGKEYIRNADGTYSEYT	-0.894
HMTYMWTTDGVNLRSEPNTDSAVVTVLGVGTQVRMIGEEDGWVKVSFNDQEGYIRADFLTTE	-0.476

Sequence	soluble fraction (log2)
HMTYSAFITARNKRIAEEYSVLLDSLNISNNVIYRLGSWVVEVNVSDHSRAIDEIYSYERSGRIDKV	-0.534
HMTYYEGYYRKNQKGFGFVIVDGRDEDIYIDAKNMNGALNNDLVVVEELKGQNGKKTEGRVVKVLKKE	-0.284
HMVADLSGVGDKDIIVDQFIYHEVLPKETIYSIVKSFNVTSEDLNKNNPFLRANGLRIGQVIRIPLKI	-0.224
HMVAEPTYGRTTDVLNIRSGPSTDDERIGQLSRGAVVTILEEKDGWYRLQRGYISADYVTQISAEEASNS	-0.546
HMVAEPVYGKVTEGPLNVRSAPSTDSEKVDSFSTGKVLTILETLDGWYKVEEGYVSADYVTIIDAAEAASS	-0.538
HMVAGHLSEKKGYYYAVLNYKDYTGKRKSKWVSTGLPVKGNKRRAEKILADIKRDFVPEEPKR	-0.0527
HMVAGQDPVKRQQILDGAKRVFLGVGFDAASMNDITREAGVSKGTIYVYFGSKEELFGALIDR	-0.807
HMVAMLDASYRGVMQTISTLLAQGNTERAYDEAVNARGQMSKQQWNNLANLIWERTGQKIDSGVSYK	-0.00781
HMVDEAQSLERNVLLTVLSRIGRDSRVVLTHDIAQRDNLRVGRHDGVVAVVDRLKGHPLFAHVTL	-0.0346
HMVDERMVTYINSLDKGNTPFLNELEKEALANYVPIIRREMQSFLKVLLQIKAPLRILEVGTAVGFSTILM	-0.354
HMVDGAHKQQAAVQALTPALKVLAAAPEGKKGQAIQALRAVLKQHGRWLDDATAQQVHEQLLAAGDAQGWQ	0.331
HMVDIGQSIRVELIREGKDSHQAVGYLRDGSMVVVNHGRKLIGSTVEVEITSIVPSSAGKVIFAEYLE	-1.05
HMVDIQTGQKVRIHTSQFAGKIGNITALNVKSAELPNGIRTATASILMQSNENVMLPVSNFDIIE	-0.044
HMVDIVLDILKIVAEKQPGNQFSQSILMQYQERGGLSKKQLEGLYGKAKRIPEIPQNKLATLEAIILR	-0.428
HMVDKNDLTAIDGIGPFLEKKLNDVGVFTYADIAGWDAAKIEEITQQISFFEGRIEKDDWVGQAQKLIDDQ	-0.704
HMVDKSYIHNQQVASDTWTVQHNLGKYPAVSVADTGNNEVYGDVRHINENTVELKFSHPFSGVAFF	-0.0737
HMVDKTMYDRYAVDDYVRVIDGPLVGTEGRIIELDRETGNVKIEAVFFGRVTTADINFALIEKVD	-1.33
HMVDLDIENYELEDILNLFRLQYNFVEADLKRAYRMALKLHPDKSGLDGEYFRFYMKAYKIVENIFNFRNR	-1.38
HMVDSVIGSVGRVTVDIDNVEALGQVKLGGMEWSARSTSGDPIPAGTEVRVDRVEGVKVFVTPV	-0.203
HMVDVEMLTTVSDHIEAKLLQGILENHGIPSYSVDEESGEYMRVYMGYSIFGEKIYVRASDLLAAQGYL	-1.93
HMVDWTFPVLVKDVVMMGRYGHMGFLRIPGKKDFESVDNALAKVGMVEYAKQQIGELSGGQR	-0.0255
HMVDYSMEDSVWNNKKEHVNEWFDANPEHEGRRVIVDGLFAIGDAQPDLRKRHWSSISVVFADLDNSPIG	-1.01
HMVEDPADNQKAADAVIKKISEIGEVTESSENLIKEARASYDALTDNQKELVTNYDVLVQAEAQLENIKD	-0.703

Sequence	soluble fraction (log2)
HMVEEVDYGTFMRMIEEKNIGKVEVRAGEIVFTDKDEKQIYKTGAMEDATLTQRLYESGAEFSKDV	-0.507
HMVEGVSLVEIYVDENSKYNGKLLSEIPKKENTLVIMIQRGEQVIIPHGNIRLESGDMLVVSKTEI	-1.38
HMVEKNALSEEIEGYVNKYGKDRSSLMPVLQAIQRKHSYINDFAQQEVARLLDIHPVEVFSVISFYSFLH	-1
HMVEKRLFPQISDAGKRLDLFLAGALAISRTMVVKIIKDGGVLVNGKAAKASYRLAGDEELLVSYEEP	-0.243
HMVEMPEVGVKVRIEVESHNGSTNFEGIVLHPASKGHLTLKLINGYNASYLIEEIRNLEIIDSS	-0.763
HMVENATPEEREALNDIAMEAMGMVKDGKPTSAREFVQSQNLDNDQKILLWSLLDAPTRSALKTAEK	0.299
HMVEPIKAPMPGMVLKILVEPGQQIEKGQGVLILEAMKMENVLKSSAAATVKSIKVSEKSAVEKGAILVEL	-0.261
HMVEQVEISILPGEYSDTISQKLLDAGLIDDKAAFSKYINDTNVDNLIQPGTFTVPKGASYEEVAKILT	-1.35
HMVERRVRFTVAPGNAGLRLDLFLTAREIGLSRTQVGRAVDEGQIQVNGRPGRAGRKLKTGDVVAIVLPA	-0.0969
HMVESLTDRELQILSLAAKGYTNKAIAVQLGISDRTVQNHLANTFQKLNAESRTEAVMRAVSLGLISA	-0.422
HMVETVQVVGAGQDIMPGSRINYSSLHYITVPRSYFHEDMFAKNNLVVGRIARAYVAKGEPLLAASLMPK	0.17
HMVEVPYSEFLKELDAGNVKDVYVSNGESQIQFTKKDQKQWNLSYKTGPIPGDDLVKRLQNADVENFT	-0.282
HMVEVTTDEITRPGAMVSGSVTFSDGVKAIWLIDEYGRPGLEPETPGYQPSESDLSEFEKHLRALLQ	-0.648
HMVEVVDAEKLEERLSKVFSAAVLLEIYNENPAHGKEYAYLFTARKNAVEEMIENGQMKRETWEAK	-1.91
HMVFSKEELLFNSDSLLSLYPNDNKLLETILSEKIDHAVKNNDMSMYKEILVIDPKNPLANYHLLM	0.17
HMVFTEEERAEYREKMLDAGFDLLKQYGMTHMSVAKITEAAGIGVSTFYNFFSSKEEYVYEVLQYRRRK	-0.392
HMVGIVQKTFEPTGIAAEELMKTLKSDKSLDFGNVQILATPKSSTSRQVVVVSGRANDVDRVMMVLSNLDS	0.015
HMVGKIVVPHLEGKPAEMARDILARDGFKSVHEEVLPSAEFGAGRVVRTEPHAGTNVAKTDPVTIFVSVGL	-0.0761
HMVGLTDLQRNVLVQIARGKSRQLISRTLKVTPAEISAALKVAQRRYRVASSTEVIVQALYDKTLSFHEIM	0.105
HMVIIPNILNKYKGLAFRQLEQVGLKIGDTIYEPNIQRDAVLRMQINGRSVQPGDQVMRFSVVDLVIG	-1.14
HMVINKRELNVLSIYSRGSEKRAIILFPTGQTKLVKVGDTLNGGRVAAIGTTEIRYIKGGNNLVLKIPQ	≥ 0.43
HMVINVNEIIRRIKELKTFKTDRQVADFLGVSKATVSNWMARNSIDFPLLINKLDGVDLTWLLTGRGTPE	-0.121

Source: the domain aggregation screens of Martell et al. (2025)
